Target: Human coagulation factor XIa (human, UniProt P03951 19-625)
Assay: cell-based or functional assay

| Binder | inhibition of fXIa activity, chromogenic assay, polypeptide at 100 nM [%] |
| --- | --- |
| NAPTin-3 (peptide) NPSCGENERHDECSRKECDPKCKYDGTEEKDDEKPVVCLTRVCYGDCICRDGFLRNKNGACVKAEDCELDNM | > 90 |
| NAPTin-4 (peptide) NPSCGENERHDECSRKECDPKCKYDGTEEKDDEKPVVCLTRVCYGDCICRDGFLRNKNGACVKAEDCELDNME | > 90 |
| NAPTin-5 (peptide) NPSCGENERHDECSRKECDPKCKYDGTEEKDDEKPVVCLTRVCYGDCICRDGFLRNKNGACVKAEDCEL | > 90 |
| NAPTin-7 (peptide) NPSCGENERHDECSRKECDPKCKYDGTEEKDDEKPVVCLTRVCYGDCICRDGFLRNKNGACVKAEDC | > 90 |
| NAPTin-2 (peptide) NPSCGENERHDECSRKECDPKCKYDGTEEKDDEKPVVCLTRVCYGDCICRDGFLRNKNGACVKAEDCELDN | > 90 |
| NAPTin-9 (peptide) NPSCGENERHDECSRKECDPKCKYDGTEEKDDEKPVVCLTRVCYGDCICRDGFLRNKNGACVKAEDCELDNMEFI | > 90 |
| NAPTin-6 (peptide) NPSCGENERHDECSRKECDPKCKYDGTEEKDDEKPVVCLTRVCYGDCICRDGFLRNKNGACVKAEDCE | > 90 |
| NAPTin-8 (peptide) NPSCGENERHDECSRKECDPKCKYDGTEEKDDEKPVVCLTRVCYGDCICRDGFLRNKNGACVKAEDCELDNMEF | > 90 |

Source: patent US20140323404A1 (GUANGDONG MEDICAL COLLEGE, published 2014)
